B1: Conserved oligomeric Golgi complex subunit 4 (Homo sapiens), Q9H9E3 (parent)
chain: MADLDSPPKLSGVQQPSEGVGGGRCSEISAELIRSLTELQELEAVYERLCGEEKVVERELDALLEQQNTIESKMVTLHRMGPNLQLIEGDAKQLAGMITFTCNLAENVSSKVRQLDLAKNRLYQAIQRADDILDLKFCMDGVQTALRSEDYEQAAAHTHRYLCLDKSVIELSRQGKEGSMIDANLKLLQEAEQRLKAIVAEKFAIATKEGDLPQVERFFKIFPLLGLHEEGLRKFSEYLCKQVASKAEENLLMVLGTDMSDRRAAVIFADTLTLLFEGIARIVETHQPIVETYYGPGRLYTLIKYLQVECDRQVEKVVDKFIKQRDYHQQFRHVQNNLMRNSTTEKIEPRELDPILTEVTLMNARSELYLRFLKKRISSDFEVGDSMASEEVKQEHQKCLDKLLNNCLLSCTMQELIGLYVTMEEYFMRETVNKAVALDTYEKGQLTSSMVDDVFYIVKKCIGRALSSSSIDCLCAMINLATTELESDFRDVLCNKLRMGFPATTFQDIQRGVTSAVNIMHSSLQQGKFDTKGIESTDEAKMSFLVTLNNVEVCSENISTLKKTLESDCTKLFSQGIGGEQAQAKFDSCLSDLAAVSNKFRDLLQEGLTELNSTAIKPQVQPWINSFFSVSHNIEEEEFNDYEANDPWVQQFILNLEQQMAEFKASLSPVIYDSLTGLMTSLVAVELEKVVLKSTFNRLGGLQFDKELRSLIAYLTTVTTWTIRDKFARLSQMATILNLERVTEILDYWGPNSGPLTWRLTPAEVRQVLALRIDFRSEDIKRLRL

In one assay the parent is B1. Particulars: with scfd1_human SCFD1, Q8WVM8.
Chain of scfd1_human SCFD1, Q8WVM8 (Q8WVM8 whole entry, looked up): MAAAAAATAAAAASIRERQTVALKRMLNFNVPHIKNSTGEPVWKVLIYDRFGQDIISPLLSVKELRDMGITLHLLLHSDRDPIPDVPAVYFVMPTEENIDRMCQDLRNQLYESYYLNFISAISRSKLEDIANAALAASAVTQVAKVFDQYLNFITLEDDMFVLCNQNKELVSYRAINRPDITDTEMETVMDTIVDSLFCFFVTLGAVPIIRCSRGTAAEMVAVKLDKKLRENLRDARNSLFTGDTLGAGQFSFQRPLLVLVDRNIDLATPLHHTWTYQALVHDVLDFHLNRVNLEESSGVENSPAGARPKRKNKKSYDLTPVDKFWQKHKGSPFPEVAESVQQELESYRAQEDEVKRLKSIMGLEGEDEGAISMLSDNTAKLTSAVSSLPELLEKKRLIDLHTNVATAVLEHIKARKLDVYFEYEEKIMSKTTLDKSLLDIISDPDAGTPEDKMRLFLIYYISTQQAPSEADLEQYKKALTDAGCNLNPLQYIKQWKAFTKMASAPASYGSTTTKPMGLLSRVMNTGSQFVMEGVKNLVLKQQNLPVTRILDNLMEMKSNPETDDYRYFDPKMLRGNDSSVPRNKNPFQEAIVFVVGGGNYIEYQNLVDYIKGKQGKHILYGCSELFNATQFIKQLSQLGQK
As to E71A, the “effect of a mutation on the interaction” value is listed as “disrupting interaction”. Turning to E53A, the “effect of a mutation on the interaction” value is reported as “disrupting interaction”.

Variants of B1 are the subject of another assay. The following applies: with scfd1_human SCFD1, Q8WVM8. This is another data set of the same source.
For E53A, the “effect of a mutation on the interaction” value is given as “decreasing interaction”.
